{
  "source": "paper PMC7033311",
  "about": "“The Eaf3 chromodomain acts as a pH sensor for gene expression by altering its binding affinity for histone methylated-lysine residues” (Bioscience Reports, 2020)",
  "molecules": {"B1": {"name": "Histone H3 peptide dimethylated at Lys36 (H3K36me2), 18 residues (peptide)", "peptide": "SAPSTGGVK(me2)KPHRYKPGT", "notes": "histone H3; source: synthetic peptide (bought: Qiagen and SIGMA Genosys)"}, "B2": {"name": "Histone H3 peptide trimethylated at Lys36 (H3K36me3) (peptide)", "peptide": "SAPSTGGVK(me3)KPHRYKPGT", "notes": "as for B1"}, "B3": {"name": "Eaf3 chromodomain (Eaf3 CD; essential Sas2-related acetyltransferase 1-associated factor 3) (Saccharomyces cerevisiae) (protein)", "chain": "MVDLEQEFALGGRCLAFHGPLMYEAKILKIWDPSSKMYTSIPNDKPGGSSQATKEIKPQKLGEDESIPEEIINGKCFFIHYQGWKSSWDEWVGYDRIRAYNEENIAMKKRLANEAKEAKK"}, "B4": {"name": "Eaf3 CD: chromodomain (residues 1−120) of budding yeast Eaf3 (protein)", "chain": "B3 chain", "modifications": "left off: His6, end not stated, cleaved", "notes": "chromodomain (residues 1−120) of budding yeast Eaf3"}, "B5": {"name": "Eaf3 chromodomain (residues 1-120) Y23A (domain or fragment, Saccharomyces cerevisiae, UniProt Q12432 1-120, looked up)", "chain": "B3 chain with Y23A", "notes": "Eaf3, Saccharomyces cerevisiae, chromodomain, residues 1-120; source: E. coli BL21(DE3)pLysS, purified (Ni-NTA, thrombin, Ni-NTA, Superdex75)"}, "B6": {"name": "Eaf3 chromodomain (residues 1-120) G19A (domain or fragment, Saccharomyces cerevisiae, UniProt Q12432 1-120, looked up)", "chain": "B3 chain with G19A", "notes": "as for B5"}, "B7": {"name": "Eaf3 chromodomain (Eaf3 CD; essential Sas2-related acetyltransferase1-associated factor 3) (Saccharomyces cerevisiae) (protein)", "chain": "B3 chain"}},
  "key": {"[1]": {"biological_target": "Eaf3 CD Y23A (Saccharomyces cerevisiae, UniProt Q12432, Y23A)", "sequence (Q12432 1-120 Y23A limits assumed)": "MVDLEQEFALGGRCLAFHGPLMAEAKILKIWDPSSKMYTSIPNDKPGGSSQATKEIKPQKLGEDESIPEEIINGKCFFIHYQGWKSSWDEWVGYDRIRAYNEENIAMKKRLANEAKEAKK", "format": "binding", "conditions": "pH 6.8"}, "[2]": {"biological_target": "Eaf3 CD Y81A (Saccharomyces cerevisiae, UniProt Q12432, Y81A)", "sequence (Q12432 1-120 Y81A limits assumed)": "as the sequence (Q12432 1-120 Y23A limits assumed) above, with A23Y, Y81A counted along it", "format": "binding", "conditions": "pH 6.8"}, "[3]": {"biological_target": "Eaf3 CD W84A (Saccharomyces cerevisiae, UniProt Q12432, W84A)", "sequence (Q12432 1-120 W84A limits assumed)": "as the sequence (Q12432 1-120 Y23A limits assumed) above, with A23Y, W84A counted along it", "format": "binding", "conditions": "pH 6.8"}, "[4]": {"biological_target": "Eaf3 CD W88A (Saccharomyces cerevisiae, UniProt Q12432, W88A)", "sequence (Q12432 1-120 W88A limits assumed)": "as the sequence (Q12432 1-120 Y23A limits assumed) above, with A23Y, W88A counted along it", "format": "binding", "conditions": "pH 6.8"}, "[5]": {"biological_target": "Eaf3 CD (wild-type) (Saccharomyces cerevisiae, UniProt Q12432)", "assay": "biochemical", "format": "binding"}, "[6]": {"biological_target": "Histone H3 peptide trimethylated at Lys36 (H3K36me3) none (post-translational modification: K36me3) (UniProt P61830)", "assay": "NMR titration (1H,15N-HSQC chemical shift perturbation), Bruker AVANCE-600", "conditions": "25°C, 20 mM NaCl (given for pH 6.8 and in the pH 8.5 Tris buffer; the wording leaves open whether NaCl was also present at pH 5.2, 6.0 and 7.5), pH 5.2: 10 mM sodium acetate, pH 6.0 and 7.5: 10 mM potassium phosphate, pH 6.8: 10 mM potassium phosphate, pH 8.5: 10 m"}, "[7]": {"biological_target": "Histone H3 peptide trimethylated at Lys36 (H3K36me3) none (post-translational modification: K36me3) (UniProt P61830)", "assay": "NMR pH titration of the free protein (series of 1H,15N-HSQC spectra; His side-chain Hδ2, Hε1, Nδ1, Nε2 and main-chain N shifts)", "conditions": "pH 5.2-10.5; 25°C"}, "[8]": {"biological_target": "T1, Eaf3 chromodomain (Eaf3 CD, residues 1-120), wild type (S. cerevisiae, UniProt Q12432 1-120)", "T1 construct": "Eaf3 chromodomain (CD), budding yeast (S. cerevisiae), residues 1-120; 15N-labelled for the NMR experiments; expressed from pET15b; also called WT Eaf3 CD; source: E. coli BL21(DE3)pLysS, purified (Ni-NTA, thrombin, Ni-NTA flow-through, Superdex75)", "T1 sequence (looked up)": "B3 chain", "assay": "NMR titration; 0.1 mM 15N-labelled WT or mutant Eaf3 CD titrated with unlabelled histone H3 peptide up to 1:88; 10 mM potassium phosphate pH 6.8, 20 mM NaCl, 5 mM DTT, 25°C; Kd by nonlinear fit of chemical shift change", "conditions": "both partners purified"}, "[9]": {"biological_target": "T2, Eaf3 chromodomain (residues 1-120), wild type (Saccharomyces cerevisiae)", "T2 construct": "Eaf3, Saccharomyces cerevisiae (budding yeast), chromodomain, residues 1-120; 15N-labelled for the NMR titrations; also called Eaf3 CD; WT; source: E. coli BL21(DE3)pLysS, purified (Ni-NTA, thrombin, Ni-NTA, Superdex75)", "T2 chain": "B3 chain", "assay": "NMR titration; 0.1 mM 15N-labeled Eaf3 CD titrated with unlabeled histone H3 peptide; 1H,15N-HSQC; 10 mM potassium phosphate pH 6.8, 20 mM NaCl, 5 mM deuterated DTT, 25°C; Kd from the titration curves of Ala25", "conditions": "both partners purified"}, "[10]": {"biological_target": "His18 (UniProt position 18, …)", "assay": "NMR", "conditions": "25 °C, free (no histone peptide), folded"}, "[11]": {"assay": "NMR pH titration of histidine residues (pKa)", "format": "physicochemical", "protocol": "A series of ^1H,^15N-HSQC spectra for 0.1–1.1 mM ^15N-labeled Eaf3 CD were recorded at different pH ranging from 5.2 to 10.5 at 25°C on a Bruker AVANCE-600 spectrometer equipped with a cryogenic probe. The observed chemical shift (δobs) was plotted as a function of pH. pKa values were calculated by a nonlinear least-squares fit of the pH titration curves using the following equation, δobs=[δl+δh×10^(pH-pKa)]/[1+10^(pH-pKa)], where δl and δh represent the chemical shift values at extreme low and high pH, respectively."}, "[12]": {"biological_target": "the molecule itself", "assay": "SEC; size exclusion chromatograms of wild-type and mutant Eaf3 CD (Superdex75 in the purification); peaks marked D: dimer, M: monomer"}},
  "note": "Residue numbers refer to the chain shown, from its start. Like-named read-outs stand apart in the source and are kept apart here. Where no end group is shown, it is not given here. [ ]: non-standard residue; d: D form. me2 = dimethylated (di-methylated lysine); Lys(Me3) = C[N+](C)(C)CCCC[C@H](N)C(=O)O; pT = C[C@@H](OP(=O)(O)O)[C@H](N)C(=O)O; Lys(Me2) = CN(C)CCCC[C@H](N)C(=O)O",
  "data": [
    {"molecule": "C[C@H](N)C(=O)N[C@@H](CCCNC(=N)N)C(=O)N[C@H](C(=O)N[C@@H](CCCC[N+](C)(C)C)C(=O)N[C@@H](CCC(N)=O)C(=O)N[C@H](C(=O)N[C@@H](C)C(=O)N[C@@H](CCCNC(=N)N)C(=O)N[C@@H](CCCCN)C(=O)N[C@@H](CO)C(=O)N[C@H](C(=O)NCC(=O)NCC(=O)N[C@@H](CCCCN)C(=O)N[C@@H](C)C(=O)N1CCC[C@H]1C(=O)N[C@@H](CCCNC(=N)N)C(=O)N[C@@H](Cc1ccc(O)cc1)C(=O)O)[C@@H](C)O)[C@@H](C)O)[C@@H](C)O", "note": "[H3K4me3]", "values": [
      {"measurement": "Dissociation constant (Kd)", "setting": "[1]", "result": "N.B."},
      {"measurement": "Dissociation constant (Kd)", "setting": "[2]", "result": "N.B."},
      {"measurement": "Dissociation constant (Kd)", "setting": "[3]", "result": "N.B."},
      {"measurement": "Dissociation constant (Kd)", "setting": "[4]", "result": "N.B."}
    ]},
    {"molecule": "C[C@H](N)C(=O)N[C@@H](CCCNC(=N)N(C)C)C(=O)N[C@H](C(=O)N[C@@H](CCCC[N+](C)(C)C)C(=O)N[C@@H](CCC(N)=O)C(=O)N[C@H](C(=O)N[C@@H](C)C(=O)N[C@@H](CCCNC(=N)N)C(=O)N[C@@H](CCCCN)C(=O)N[C@@H](CO)C(=O)N[C@H](C(=O)NCC(=O)NCC(=O)N[C@@H](CCCCN)C(=O)N[C@@H](C)C(=O)N1CCC[C@H]1C(=O)N[C@@H](CCCNC(=N)N)C(=O)N[C@@H](Cc1ccc(O)cc1)C(=O)O)[C@@H](C)O)[C@@H](C)O)[C@@H](C)O", "note": "[H3R2ame2K4me3]", "values": [
      {"measurement": "Dissociation constant (Kd)", "setting": "[1]", "result": "N.B."},
      {"measurement": "Dissociation constant (Kd)", "setting": "[2]", "result": "N.B."},
      {"measurement": "Dissociation constant (Kd)", "setting": "[3]", "result": "N.B."},
      {"measurement": "Dissociation constant (Kd)", "setting": "[4]", "result": "N.B."}
    ]},
    {"molecule": "C[N+](C)(C)CCCC[C@H](N)C(=O)O", "note": "[Kme3, tri-methyl-lysine]", "values": [
      {"measurement": "Kd", "setting": "[5]", "result": "4.44 ± 0.23", "unit": "mM"}
    ]},
    {"molecule": "CN(C)C(N)=NCCC[C@H](N)C(=O)O", "note": "[Rame2, asymmetrically di-methylated arginine]", "values": [
      {"measurement": "Kd", "setting": "[5]; pH 6.8, read-out: Dissociation constant (Kd)", "result": "> 10", "unit": "mM"}
    ]},
    {"molecule": "Eaf3 chromodomain (Eaf3 CD), wild type", "values": [
      {"measurement": "fold change of binding (relative to pH 6.8)", "setting": "[6]; pH 6.0-6.8", "result": "weakened 2.3-fold on going from pH 6.8 to 6.0"},
      {"measurement": "fold change of binding (relative to pH 6.8)", "setting": "[6]; pH 6.8-7.5", "result": "enhanced 2.2-fold on going from pH 6.8 to 7.5"},
      {"measurement": "fold change of binding", "setting": "[6]; pH 8.5", "result": "enhanced a further 3.6-fold at pH 8.5"},
      {"measurement": "pKa, His18 of Eaf3 CD", "setting": "[7]", "result": "approximately 6.8"}
    ]},
    {"molecule": "Eaf3 chromodomain H18A H18A", "values": [
      {"measurement": "fold change of binding (relative to pH 6.8)", "setting": "[6]; pH 5.2", "result": "decreased by 1.9-fold at pH 5.2"},
      {"measurement": "fold change of binding (H18A relative to WT)", "setting": "[6]; pH 6.8", "result": "2.9-fold stronger binding than WT at pH 6.8"},
      {"measurement": "fold change of binding (relative to pH 6.8)", "setting": "[6]; pH 8.5", "result": "slightly enhanced by a factor of 1.2-fold at pH 8.5"}
    ]},
    {"molecule": "Eaf3 chromodomain H18D H18D", "values": [
      {"measurement": "fold change of binding (H18D relative to WT)", "setting": "[6]; pH 6.8", "result": "11.7-fold increase relative to WT at pH 6.8"}
    ]},
    {"molecule": "AR[pT][Lys(Me3)]QTARKSTGGKAPRY", "note": "[histone H3 peptide H3T3phoK4me3, titration peptide (printed in Table 1 as H3T3phoK3me3)]", "values": [
      {"measurement": "Kd", "setting": "[8]", "result": "6.52 ± 0.48", "unit": "mM"}
    ]},
    {"molecule": "ART[Lys(Me2)]QTARKSTGGKAPRY", "note": "[histone H3 peptide H3K4me2, titration peptide]", "values": [
      {"measurement": "Kd", "setting": "[8]", "result": "4.04 ± 0.11", "unit": "mM"}
    ]},
    {"molecule": "B1", "values": [
      {"measurement": "Kd", "setting": "[9]", "result": "4.41 ± 0.908", "unit": "mM"}
    ]},
    {"molecule": "B2", "values": [
      {"measurement": "Kd", "setting": "[9]", "result": "1.94 ± 0.094", "unit": "mM"}
    ]},
    {"molecule": "B3", "values": [
      {"measurement": "pKa", "setting": "[10]; not stated for the pH titration, the authors state that the pH changes did not disrupt the structure", "result": "approximately 6.8"}
    ]},
    {"molecule": "B4", "values": [
      {"measurement": "observed pKa value of His18", "setting": "[11]; NMR pH titration, 25°C, overall", "result": "approximately 6.8"},
      {"measurement": "fraction of Eaf3 CD molecules with protonated His18", "setting": "[11]; at pH 5.2", "result": "almost all"},
      {"measurement": "fraction of Eaf3 CD molecules protonated at His18", "setting": "[11]; at physiological pH of 6.8", "result": "almost half"}
    ]},
    {"molecule": "B5", "values": [
      {"measurement": "stoichiometry N", "setting": "[12]", "result": 2}
    ]},
    {"molecule": "B6", "values": [
      {"measurement": "stoichiometry N", "setting": "[12]", "result": 2}
    ]},
    {"molecule": "B7", "values": [
      {"measurement": "pKa", "setting": "[10]; the authors state that the pH changes caused no disruption of structure", "result": 6.47}
    ]}
  ]
}
